Results from publication PMC8532503 (Science (New York, N.Y.), 2021).

Target: Full-length ectodomain of human LRP1 (LRP1-ECD) (human, UniProt Q07954-1 20-4414)
Experiment: SEC

Sequence of Full-length ectodomain of human LRP1 (LRP1-ECD) (Q07954 20-4414): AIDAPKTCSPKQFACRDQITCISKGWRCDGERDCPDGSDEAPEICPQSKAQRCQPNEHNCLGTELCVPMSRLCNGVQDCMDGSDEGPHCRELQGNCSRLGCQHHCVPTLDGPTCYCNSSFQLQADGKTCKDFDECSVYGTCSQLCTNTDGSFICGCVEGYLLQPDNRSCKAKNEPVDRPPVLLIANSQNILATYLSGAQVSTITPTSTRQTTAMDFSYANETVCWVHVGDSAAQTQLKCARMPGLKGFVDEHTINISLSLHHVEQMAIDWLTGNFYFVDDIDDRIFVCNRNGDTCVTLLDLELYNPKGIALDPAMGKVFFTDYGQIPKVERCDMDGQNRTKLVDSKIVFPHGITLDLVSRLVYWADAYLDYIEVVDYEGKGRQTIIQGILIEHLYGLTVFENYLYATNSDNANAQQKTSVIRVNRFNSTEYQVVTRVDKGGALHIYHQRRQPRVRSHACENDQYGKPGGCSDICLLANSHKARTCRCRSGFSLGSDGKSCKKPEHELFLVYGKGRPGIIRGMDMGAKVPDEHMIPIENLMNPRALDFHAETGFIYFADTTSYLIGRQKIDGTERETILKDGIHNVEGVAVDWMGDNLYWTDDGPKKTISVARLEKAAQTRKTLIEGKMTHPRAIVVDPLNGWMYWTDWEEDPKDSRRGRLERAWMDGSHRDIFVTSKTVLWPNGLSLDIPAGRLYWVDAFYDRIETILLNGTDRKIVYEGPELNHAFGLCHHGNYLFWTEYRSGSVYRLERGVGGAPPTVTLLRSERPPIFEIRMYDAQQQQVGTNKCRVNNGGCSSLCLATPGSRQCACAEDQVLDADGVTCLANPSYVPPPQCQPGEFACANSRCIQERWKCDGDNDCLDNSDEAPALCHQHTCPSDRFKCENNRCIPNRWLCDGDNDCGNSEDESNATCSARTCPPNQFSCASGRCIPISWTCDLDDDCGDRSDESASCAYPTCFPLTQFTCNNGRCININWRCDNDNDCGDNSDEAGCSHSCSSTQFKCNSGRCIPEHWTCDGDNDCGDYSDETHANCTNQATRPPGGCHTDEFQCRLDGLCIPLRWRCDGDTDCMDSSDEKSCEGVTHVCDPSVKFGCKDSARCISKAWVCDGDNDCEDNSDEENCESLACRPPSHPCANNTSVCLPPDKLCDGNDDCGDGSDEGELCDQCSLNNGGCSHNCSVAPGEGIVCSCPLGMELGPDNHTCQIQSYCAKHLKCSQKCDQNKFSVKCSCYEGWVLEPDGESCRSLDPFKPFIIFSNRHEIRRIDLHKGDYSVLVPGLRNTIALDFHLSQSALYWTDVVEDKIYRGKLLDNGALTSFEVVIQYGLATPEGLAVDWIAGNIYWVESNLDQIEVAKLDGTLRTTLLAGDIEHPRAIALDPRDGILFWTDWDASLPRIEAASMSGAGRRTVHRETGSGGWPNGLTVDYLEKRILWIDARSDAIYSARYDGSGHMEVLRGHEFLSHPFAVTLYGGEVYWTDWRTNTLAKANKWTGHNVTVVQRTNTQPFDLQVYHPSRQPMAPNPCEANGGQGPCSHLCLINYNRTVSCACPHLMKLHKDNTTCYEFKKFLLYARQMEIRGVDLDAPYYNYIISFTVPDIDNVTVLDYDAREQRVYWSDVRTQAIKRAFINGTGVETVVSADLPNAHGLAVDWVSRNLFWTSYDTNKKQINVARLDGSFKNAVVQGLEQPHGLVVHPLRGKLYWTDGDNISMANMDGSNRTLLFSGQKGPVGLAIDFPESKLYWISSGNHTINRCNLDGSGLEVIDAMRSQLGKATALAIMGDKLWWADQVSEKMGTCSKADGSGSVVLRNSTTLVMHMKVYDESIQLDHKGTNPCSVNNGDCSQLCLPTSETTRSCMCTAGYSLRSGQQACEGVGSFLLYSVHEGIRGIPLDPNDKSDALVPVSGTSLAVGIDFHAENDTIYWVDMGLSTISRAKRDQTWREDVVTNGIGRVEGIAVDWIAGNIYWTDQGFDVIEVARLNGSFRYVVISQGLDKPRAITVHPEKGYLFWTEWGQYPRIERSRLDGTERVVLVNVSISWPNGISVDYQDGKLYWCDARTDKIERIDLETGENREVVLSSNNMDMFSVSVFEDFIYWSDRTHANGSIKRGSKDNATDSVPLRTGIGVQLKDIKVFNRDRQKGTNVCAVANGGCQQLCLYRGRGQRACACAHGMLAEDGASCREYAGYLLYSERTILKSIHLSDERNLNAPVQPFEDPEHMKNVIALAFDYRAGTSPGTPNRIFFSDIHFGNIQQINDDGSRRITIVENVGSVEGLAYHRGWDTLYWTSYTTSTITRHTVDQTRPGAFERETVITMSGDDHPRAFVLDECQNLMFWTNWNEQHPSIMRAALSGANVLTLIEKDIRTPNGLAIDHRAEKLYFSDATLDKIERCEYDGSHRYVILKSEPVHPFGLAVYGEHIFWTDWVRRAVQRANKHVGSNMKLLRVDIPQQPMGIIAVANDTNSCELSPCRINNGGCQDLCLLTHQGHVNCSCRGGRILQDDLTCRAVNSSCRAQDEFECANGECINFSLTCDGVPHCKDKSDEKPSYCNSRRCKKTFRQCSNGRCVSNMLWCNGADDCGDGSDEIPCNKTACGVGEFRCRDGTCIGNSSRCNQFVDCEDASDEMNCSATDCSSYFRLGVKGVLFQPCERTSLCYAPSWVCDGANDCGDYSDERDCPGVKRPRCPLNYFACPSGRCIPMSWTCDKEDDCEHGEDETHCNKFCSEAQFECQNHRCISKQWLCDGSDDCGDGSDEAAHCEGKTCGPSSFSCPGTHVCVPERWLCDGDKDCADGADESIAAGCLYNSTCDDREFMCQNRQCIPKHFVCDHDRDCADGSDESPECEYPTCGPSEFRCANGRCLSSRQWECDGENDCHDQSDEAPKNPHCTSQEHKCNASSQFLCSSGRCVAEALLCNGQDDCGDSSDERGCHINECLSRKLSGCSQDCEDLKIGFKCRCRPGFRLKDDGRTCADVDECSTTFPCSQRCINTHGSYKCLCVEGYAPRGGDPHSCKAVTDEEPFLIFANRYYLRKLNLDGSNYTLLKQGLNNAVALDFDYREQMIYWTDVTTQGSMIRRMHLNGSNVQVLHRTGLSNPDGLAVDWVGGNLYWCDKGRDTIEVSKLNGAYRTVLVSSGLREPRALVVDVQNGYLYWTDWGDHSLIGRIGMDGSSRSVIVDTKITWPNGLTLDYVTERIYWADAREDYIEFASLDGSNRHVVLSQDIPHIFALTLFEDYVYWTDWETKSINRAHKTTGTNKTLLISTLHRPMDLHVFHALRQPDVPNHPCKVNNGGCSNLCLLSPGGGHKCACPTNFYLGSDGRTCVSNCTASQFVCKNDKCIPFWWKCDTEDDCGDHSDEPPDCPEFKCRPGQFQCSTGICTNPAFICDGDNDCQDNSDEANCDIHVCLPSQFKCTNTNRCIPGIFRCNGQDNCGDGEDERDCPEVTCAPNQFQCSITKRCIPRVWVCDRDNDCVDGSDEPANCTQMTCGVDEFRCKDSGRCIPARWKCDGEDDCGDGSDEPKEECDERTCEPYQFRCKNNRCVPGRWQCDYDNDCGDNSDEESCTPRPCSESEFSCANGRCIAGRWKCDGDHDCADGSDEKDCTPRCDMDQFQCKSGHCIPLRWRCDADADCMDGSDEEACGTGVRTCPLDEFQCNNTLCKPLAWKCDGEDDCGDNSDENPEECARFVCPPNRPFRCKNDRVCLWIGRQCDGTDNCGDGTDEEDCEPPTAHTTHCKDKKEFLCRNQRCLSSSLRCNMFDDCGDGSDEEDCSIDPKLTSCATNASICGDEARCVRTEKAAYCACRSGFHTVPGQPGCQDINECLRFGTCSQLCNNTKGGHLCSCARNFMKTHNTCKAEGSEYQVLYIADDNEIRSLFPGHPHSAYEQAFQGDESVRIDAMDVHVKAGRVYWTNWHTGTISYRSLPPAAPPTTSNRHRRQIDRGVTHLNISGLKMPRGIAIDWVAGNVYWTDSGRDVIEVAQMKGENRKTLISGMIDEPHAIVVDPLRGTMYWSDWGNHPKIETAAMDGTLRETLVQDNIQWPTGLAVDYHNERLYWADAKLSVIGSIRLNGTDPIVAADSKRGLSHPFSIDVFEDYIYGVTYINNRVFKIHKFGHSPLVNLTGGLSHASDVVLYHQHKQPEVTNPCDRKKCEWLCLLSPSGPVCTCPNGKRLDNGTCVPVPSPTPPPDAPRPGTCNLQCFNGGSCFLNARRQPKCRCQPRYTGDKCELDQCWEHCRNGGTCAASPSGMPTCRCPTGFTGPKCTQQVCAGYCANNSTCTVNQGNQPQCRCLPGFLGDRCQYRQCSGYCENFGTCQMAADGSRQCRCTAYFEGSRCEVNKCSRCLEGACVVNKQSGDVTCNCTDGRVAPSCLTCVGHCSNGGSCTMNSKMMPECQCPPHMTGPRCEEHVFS

B1: Recombinant mouse SAA1 (purified SAA1, tag state not stated) (natural protein, UniProt P05366 20-122, looked up)
chain: GFFSFVHEAFQGAGDMWRAYTDMKEANWKNSDKYFHARGNYDAAQRGPGGVWAAEKISDGREAFQEFFGRGHEDTIADQEANRHGRSGKDPNYYRPPGLPDKY
- binding result: binds
